What is called EC50 is the concentration giving half of the maximal effect. Broadly, the Kd is the equilibrium constant for the complex coming apart. A higher Kd goes with weaker binding. A word on the koff: it is the first-order rate constant of dissociation. Broadly, the kon is a measure of how fast the partners come together. A high value points to fast association.

These results are taken from patent publication US20260226161A1 (EXELIXIS, published 2026).

The target of experiment [1] is T1, PD-L1 expressed on cells (UniProt Q9NZQ7 19-290, limits assumed). Put plainly: cell-based or functional assay.
T1 sequence (Q9NZQ7 19-290 limits assumed): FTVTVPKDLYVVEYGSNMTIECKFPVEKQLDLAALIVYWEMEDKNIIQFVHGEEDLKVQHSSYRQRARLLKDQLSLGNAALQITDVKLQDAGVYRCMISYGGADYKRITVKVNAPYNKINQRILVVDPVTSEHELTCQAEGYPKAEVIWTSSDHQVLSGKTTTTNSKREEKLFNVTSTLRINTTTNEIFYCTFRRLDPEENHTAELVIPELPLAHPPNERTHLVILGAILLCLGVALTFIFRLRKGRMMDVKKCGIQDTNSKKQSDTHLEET
Experiment [2] concerns the target T1, PD-L1 expressed on cells. Put plainly: flow cytometry on MC/CAR cells expressing PD-L1. The procedure: (§1) Cells were collected by centrifugation at 400×g for 7 minutes and primary antibody was removed. 50 μL per well of AF488 goat anti human IgG Fab (Jackson Immuno Research 109-547-003) at 1:100 dilution was added. Plates were placed at 4° C. for 30 minutes.
(§2) Cells were collected by centrifugation at 400×g for 7 minutes and secondary antibody was removed. Cells were resuspended in 50 μL per well of PBS and analyzed by flow cytometry. Binding curves were calculated using the mean fluorescence intensity (MFI) of the FITC fluorescence signal on the cells. Bispecific antibody binding was evaluated in KHYG-1 cells expressing endogenous NKG2A and in MC/CAR cells expressing PD-L1. Cells were harvested and assayed for binding as described above.
On the technique in general: In flow cytometry, cells or beads pass a laser one at a time.

Experiment [3] has as its target T2, Human NKG2A & CD94 with mouse IgG2a Fc tag (AcroBiosystems) (human, UniProt P26715 94-233; Q13241 32-179, limits assumed).
T2 construct: Bought soluble antigen of the Carterra assay; also called hNKG2A; not shown: mouse IgG2a Fc tag
Put plainly: SPR (Carterra), antibody on chip, soluble antigen.

In experiment [4] the target is T3, Human PD-L1 with His tag (AcroBiosystems) (human, UniProt Q9NZQ7 19-238).
T3 construct: Bought protein; also called hPD-L1; not shown: His tag
T3 sequence (Q9NZQ7 19-238 limits assumed): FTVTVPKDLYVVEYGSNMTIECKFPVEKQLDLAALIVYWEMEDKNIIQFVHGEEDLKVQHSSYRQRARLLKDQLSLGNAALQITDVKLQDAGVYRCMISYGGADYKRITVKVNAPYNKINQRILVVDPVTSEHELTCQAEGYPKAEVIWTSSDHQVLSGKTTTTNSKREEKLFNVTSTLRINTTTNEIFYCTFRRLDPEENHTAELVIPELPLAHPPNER
Nature of the experiment: SPR (Carterra), antibody on chip, soluble antigen.

The target of the next experiment is Cyno PD-L1 (cyno, UniProt G7PSE7 19-238). Nature of the experiment: SPR (Carterra), antibody on chip, soluble antigen.
Chain of Cyno PD-L1 (G7PSE7 entry or part of it limits assumed): as the sequence (Q9NZQ7 19-238 limits assumed) above, with A33T, A34S, S62N, R68Q, Q82R, F173L, T185A, T192I, H215L counted along it
The target in experiment [5] is T4, NKG2A expressed on KHYG-1 cells (endogenous) (human, UniProt P26715 1-233; Q13241 1-179).
T4 construct: whole, on cells; Surface NKG2A copy number of approximately 10-20K; also called KHYG-1 cells expressing endogenous NKG2A; NKG2A-expressing cells
T4 sequence (P26715 whole entry, chain 1 of 2): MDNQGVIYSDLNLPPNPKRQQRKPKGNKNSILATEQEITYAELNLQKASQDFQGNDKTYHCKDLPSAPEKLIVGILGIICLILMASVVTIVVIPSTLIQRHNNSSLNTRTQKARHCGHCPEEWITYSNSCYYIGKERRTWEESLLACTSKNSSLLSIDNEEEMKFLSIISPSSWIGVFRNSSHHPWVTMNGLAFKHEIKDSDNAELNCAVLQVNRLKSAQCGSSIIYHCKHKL
T4 sequence (Q13241 whole entry, chain 2 of 2): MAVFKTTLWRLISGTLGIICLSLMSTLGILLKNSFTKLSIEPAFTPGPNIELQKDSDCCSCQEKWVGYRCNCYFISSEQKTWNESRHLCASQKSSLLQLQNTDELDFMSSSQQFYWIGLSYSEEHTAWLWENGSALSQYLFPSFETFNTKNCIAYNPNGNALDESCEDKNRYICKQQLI
Put plainly: flow cytometry on KHYG-1 cells expressing endogenous NKG2A. Here is the method: as §1, §2

The target of experiment [6] is T4, NKG2A expressed on KHYG-1 cells …. Nature of the experiment: flow cytometry competition; inhibition of HLA-E tetramer binding to KHYG-1 cells. Here is the method: 15 μL per well of binder dilution at 2× concentration was plated in a 96-well plate (Costar 3897). 15 μL per well of cell suspension at 5×10⁶ cells per mL was added. Plates were placed at 4° C. for 30 minutes. Following the incubation, 5 μL per well of Fc block (BD Pharmingen Cat #564220) was added at a final concentration of 500 ng per well. Plates were placed at 4° C. for 10 minutes. […] Plates were placed at 4° C. for 1 hour. Following the incubation, 100 μL per well of PBS was added and plate was centrifuged at 400×g for 7 minutes. Supernatant was removed by flicking the plate. Cells were resuspended in 50 μL per well of PBS and analyzed by flow cytometry (Intellicyt).

T2 sequence (P26715 94-233 limits assumed, chain 1 of 2): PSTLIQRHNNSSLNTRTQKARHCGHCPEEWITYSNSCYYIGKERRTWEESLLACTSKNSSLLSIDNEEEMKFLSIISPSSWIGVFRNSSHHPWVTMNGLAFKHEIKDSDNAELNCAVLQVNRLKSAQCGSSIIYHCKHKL
T2 sequence (Q13241 32-179 limits assumed, chain 2 of 2): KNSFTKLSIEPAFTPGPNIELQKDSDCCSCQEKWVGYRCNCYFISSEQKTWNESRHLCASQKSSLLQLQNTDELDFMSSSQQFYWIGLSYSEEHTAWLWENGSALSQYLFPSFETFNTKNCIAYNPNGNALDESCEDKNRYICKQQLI

B1: P12 × A2A2 (1 × 2 format) (bispecific antibody)
heavy 1: DIQMTQSPSSLSASVGDRVTITCRASQSVSSAVAWYQQKPGKAPKLLIYSASSLYSGVPSRFSGSRSGTDFTLTISSLQPEDFATYYCQQFMLEPITFGQGTKVEIKGQPREPQVCTLPPSRDELTKNQVSLTCLVRGFYPSDIAVEWESNGQPENNYKTTPPVLDSDGSFFLYSKLTVDKSRWQQGNVFSCSVMHEALHNHYTQKSLSLSPGKDKTHTCPPCPAPEAAGGPSVFLFPPKPKDTLMISRTPEVTCVVVDVSHEDPEVKFNWYVDGVEVHNAKTKPREEQYNSTYRVVSVLTVLHQDWLNGKEYKCKVSNKALKAPIEKTISKAKGQPREPQVYTLPPSREEMTKNQVSLSCAVKGFYPSDIAVEWESNGQPENNYKTTPPVLDSDGSFFLVSKLTVDKSRWQQGNVFSCSVMHEALHNHYTQKSLSLSPGK
light 1: EVQLVESGGGLVQPGGSLRLSCAASGFTFSSYYIHWVRQAPGKGLEWVATINSRGGFTLYADSVKGRFTISADTSKNTAYLQMNSLRAEDTAVYYCARGYTLTPVLDYWGQGTLVTVSSAQPREPQVYTLPPCRDWLTKNQVSLTCLVKGFYPSDIAVEWESNGQPENNYKTTPPVLDSDGSFFLYSKLTVDKSRWQQGNVFSCSVMHEALHNHYTQKSLSLSPGK
heavy 2: not shown
light 2: EVQLVESGGGLVQPGGSLRLSCAASGFTFSSYYIHWVRQAPGKGLEWVASYVPEDGYTDYADSVKGRFTISADTSKNTAYLQMNSLRAEDTAVYYCARSSDFIPWTSSGGMDYWGQGTLVTVSSASTKGPSVFPLAPSSKSTSGGTAALGCLVKDYFPEPVTVSWNSGALTSGVHTFPAVLQSSGLYSLSSVVTVPSSSLGTQTYICNVNHKPSNTKVDKKVEPKSC
notes: One PD-L1 site, two NKG2A sites; also called P12×A2A2, sFc; P12 × A2A2 sFc
Regarding B1, in the experiment with PD-L1 expressed on cells [1], the “IC50 of inhibiting PD-1/PD-L1 interaction in PD-L1+MDA-MB-231 cells (PD-1/PD-L1 Signaling Bioassay, chemiluminescent signal)” value is 0.689 nM. The EC50 was found to be 6.49 nM with PD-L1 expressed on cells [2], 0.149 nM in experiment [5] and 0.36 nM in experiment [6]. The Kd is 0.15 nM in experiment [3], 0.15 nM in experiment [4] and 0.12 nM in the experiment with Cyno PD-L1. Besides, the figures for the koff (in experiment [3]; in experiment [4]; with Cyno PD-L1) were 5e-05 s⁻¹, 7e-05 s⁻¹ and 5e-05 s⁻¹, respectively. Also, the results for the kon (in experiment [3]; in experiment [4]; with Cyno PD-L1) were 360000 M⁻¹ s⁻¹, 470000 M⁻¹ s⁻¹ and 480000 M⁻¹ s⁻¹, respectively.

B2: P12 × A11A11 (1 × 2 format) (bispecific antibody)
heavy 1: DIQMTQSPSSLSASVGDRVTITCRASQSVSSAVAWYQQKPGKAPKLLIYSASSLYSGVPSRFSGSRSGTDFTLTISSLQPEDFATYYCQQFMLEPITFGQGTKVEIKGQPREPQVCTLPPSRDELTKNQVSLTCLVRGFYPSDIAVEWESNGQPENNYKTTPPVLDSDGSFFLYSKLTVDKSRWQQGNVFSCSVMHEALHNHYTQKSLSLSPGKDKTHTCPPCPAPEAAGGPSVFLFPPKPKDTLMISRTPEVTCVVVDVSHEDPEVKFNWYVDGVEVHNAKTKPREEQYNSTYRVVSVLTVLHQDWLNGKEYKCKVSNKALKAPIEKTISKAKGQPREPQVYTLPPSREEMTKNQVSLSCAVKGFYPSDIAVEWESNGQPENNYKTTPPVLDSDGSFFLVSKLTVDKSRWQQGNVFSCSVMHEALHNHYTQKSLSLSPGK
light 1: EVQLVESGGGLVQPGGSLRLSCAASGFTFSSYYIHWVRQAPGKGLEWVATINSRGGFTLYADSVKGRFTISADTSKNTAYLQMNSLRAEDTAVYYCARGYTLTPVLDYWGQGTLVTVSSAQPREPQVYTLPPCRDWLTKNQVSLTCLVKGFYPSDIAVEWESNGQPENNYKTTPPVLDSDGSFFLYSKLTVDKSRWQQGNVFSCSVMHEALHNHYTQKSLSLSPGK
heavy 2: not shown
light 2: EVQLVESGGGLVQPGGSLRLSCAASGFTFSWYYIHWVRQAPGKGLEWVAVIDPISSYTYYADSVKGRFTISADTSKNTAYLQMNSLRAEDTAVYYCARGFDRAMDYWGQGTLVTVSSASTKGPSVFPLAPSSKSTSGGTAALGCLVKDYFPEPVTVSWNSGALTSGVHTFPAVLQSSGLYSLSSVVTVPSSSLGTQTYICNVNHKPSNTKVDKKVEPKSC
notes: One PD-L1 site, two NKG2A sites; also called P12×A11A11, sFc; P12 × A11A11 sFc
In the case of B2, the “IC50 of inhibiting PD-1/PD-L1 interaction in PD-L1+MDA-MB-231 cells (PD-1/PD-L1 Signaling Bioassay, chemiluminescent signal)” value with PD-L1 expressed on cells [1] is 0.567 nM. The EC50 came to 1.76 nM in the experiment with PD-L1 expressed on cells [2], 0.168 nM in experiment [5] and 0.42 nM in experiment [6]. For the same molecule, the Kd in experiment [3] was found to be 0.34 nM; in experiment [4], 0.24 nM; with Cyno PD-L1, 0.13 nM. In addition, the koff worked out at 9e-05 s⁻¹ in experiment [3], 9e-05 s⁻¹ in experiment [4] and 6e-05 s⁻¹ in the experiment with Cyno PD-L1. Moreover, the association rate constant (kon) came out at 270000 M⁻¹ s⁻¹ in experiment [3], 380000 M⁻¹ s⁻¹ in experiment [4] and 470000 M⁻¹ s⁻¹ with Cyno PD-L1.

B3: P12P12 × A2 (2 × 1 format) (bispecific antibody)
heavy 1: DIQMTQSPSSLSASVGDRVTITCRASQSVSSAVAWYQQKPGKAPKLLIYSASSLYSGVPSRFSGSRSGTDFTLTISSLQPEDFATYYCQQFMLEPITFGQGTKVEIKGQPREPQVCTLPPSRDELTKNQVSLTCLVRGFYPSDIAVEWESNGQPENNYKTTPPVLDSDGSFFLYSKLTVDKSRWQQGNVFSCSVMHEALHNHYTQKSLSLSPGKTASSGGSSSGDIQMTQSPSSLSASVGDRVTITCRASQSVSSAVAWYQQKPGKAPKLLIYSASSLYSGVPSRFSGSRSGTDFTLTISSLQPEDFATYYCQQFMLEPITFGQGTKVEIKGQPREPQVCTLPPSRDELTKNQVSLTCLVRGFYPSDIAVEWESNGQPENNYKTTPPVLDSDGSFFLYSKLTVDKSRWQQGNVFSCSVMHEALHNHYTQKSLSLSPGKDKTHTCPPCPAPEAAGGPSVFLFPPKPKDTLMISRTPEVTCVVVDVSHEDPEVKFNWYVDGVEVHNAKTKPREEQYNSTYRVVSVLTVLHQDWLNGKEYKCKVSNKALKAPIEKTISKAKGQPREPQVYTLPPSREEMTKNQVSLSCAVKGFYPSDIAVEWESNGQPENNYKTTPPVLDSDGSFFLVSKLTVDKSRWQQGNVFSCSVMHEALHNHYTQKSLSLSPGK
light 1: EVQLVESGGGLVQPGGSLRLSCAASGFTFSSYYIHWVRQAPGKGLEWVATINSRGGFTLYADSVKGRFTISADTSKNTAYLQMNSLRAEDTAVYYCARGYTLTPVLDYWGQGTLVTVSSAQPREPQVYTLPPCRDWLTKNQVSLTCLVKGFYPSDIAVEWESNGQPENNYKTTPPVLDSDGSFFLYSKLTVDKSRWQQGNVFSCSVMHEALHNHYTQKSLSLSPGK
heavy 2: not shown
light 2: EVQLVESGGGLVQPGGSLRLSCAASGFTFSSYYIHWVRQAPGKGLEWVASYVPEDGYTDYADSVKGRFTISADTSKNTAYLQMNSLRAEDTAVYYCARSSDFIPWTSSGGMDYWGQGTLVTVSSASTKGPSVFPLAPSSKSTSGGTAALGCLVKDYFPEPVTVSWNSGALTSGVHTFPAVLQSSGLYSLSSVVTVPSSSLGTQTYICNVNHKPSNTKVDKKVEPKSC
notes: Two PD-L1 sites, one NKG2A site; also called P12P12 × A2 sFc
Take B3: in the experiment with PD-L1 expressed on cells [1], the “IC50 of inhibiting PD-1/PD-L1 interaction in PD-L1+MDA-MB-231 cells (PD-1/PD-L1 Signaling Bioassay, chemiluminescent signal)” value came to 0.714 nM. For the same molecule, the EC50 with PD-L1 expressed on cells [2] turned out to be 8.67 nM; in experiment [5] it was 0.827 nM; in experiment [6], 46.4 nM.

B4: P12P12 × A11 (2 × 1 format) (bispecific antibody)
heavy 1: DIQMTQSPSSLSASVGDRVTITCRASQSVSSAVAWYQQKPGKAPKLLIYSASSLYSGVPSRFSGSRSGTDFTLTISSLQPEDFATYYCQQFMLEPITFGQGTKVEIKGQPREPQVCTLPPSRDELTKNQVSLTCLVRGFYPSDIAVEWESNGQPENNYKTTPPVLDSDGSFFLYSKLTVDKSRWQQGNVFSCSVMHEALHNHYTQKSLSLSPGKTASSGGSSSGDIQMTQSPSSLSASVGDRVTITCRASQSVSSAVAWYQQKPGKAPKLLIYSASSLYSGVPSRFSGSRSGTDFTLTISSLQPEDFATYYCQQFMLEPITFGQGTKVEIKGQPREPQVCTLPPSRDELTKNQVSLTCLVRGFYPSDIAVEWESNGQPENNYKTTPPVLDSDGSFFLYSKLTVDKSRWQQGNVFSCSVMHEALHNHYTQKSLSLSPGKDKTHTCPPCPAPEAAGGPSVFLFPPKPKDTLMISRTPEVTCVVVDVSHEDPEVKFNWYVDGVEVHNAKTKPREEQYNSTYRVVSVLTVLHQDWLNGKEYKCKVSNKALKAPIEKTISKAKGQPREPQVYTLPPSREEMTKNQVSLSCAVKGFYPSDIAVEWESNGQPENNYKTTPPVLDSDGSFFLVSKLTVDKSRWQQGNVFSCSVMHEALHNHYTQKSLSLSPGK
light 1: EVQLVESGGGLVQPGGSLRLSCAASGFTFSSYYIHWVRQAPGKGLEWVATINSRGGFTLYADSVKGRFTISADTSKNTAYLQMNSLRAEDTAVYYCARGYTLTPVLDYWGQGTLVTVSSAQPREPQVYTLPPCRDWLTKNQVSLTCLVKGFYPSDIAVEWESNGQPENNYKTTPPVLDSDGSFFLYSKLTVDKSRWQQGNVFSCSVMHEALHNHYTQKSLSLSPGK
heavy 2: not shown
light 2: EVQLVESGGGLVQPGGSLRLSCAASGFTFSWYYIHWVRQAPGKGLEWVAVIDPISSYTYYADSVKGRFTISADTSKNTAYLQMNSLRAEDTAVYYCARGFDRAMDYWGQGTLVTVSSASTKGPSVFPLAPSSKSTSGGTAALGCLVKDYFPEPVTVSWNSGALTSGVHTFPAVLQSSGLYSLSSVVTVPSSSLGTQTYICNVNHKPSNTKVDKKVEPKSC
notes: Two PD-L1 sites, one NKG2A site; also called P12P12 × A11 sFc
Turning to B4, the “IC50 of inhibiting PD-1/PD-L1 interaction in PD-L1+MDA-MB-231 cells (PD-1/PD-L1 Signaling Bioassay, chemiluminescent signal)” value with PD-L1 expressed on cells [1] was determined as 0.405 nM. The EC50 in the experiment with PD-L1 expressed on cells [2] was determined as 3.23 nM; in experiment [5], 1.99 nM.
